Measurements taken from patent publication US20240294634A1 (INNATE PHARMA, published 2024).
One block for each binder: values may come before it.

Key:
ILT2 mutant 4 = target: T1, ILT2 mutant 4 (human, UniProt Q8NHL6 24-650); test: flow cytometry, HEK293T cells with ILT2 mutant
T1 construct: Transfected in HEK-293T cells

ILT2 mutant 4-2 = target: T2, ILT2 mutant 4-2 (human, UniProt Q8NHL6 24-650); test: flow cytometry, HEK293T cells with ILT2 mutant
T2 construct: Transfected in HEK-293T cells

ILT2 mutant 4-3 = target: T3, ILT2 mutant 4-3 (human, UniProt Q8NHL6 24-650); test: flow cytometry, HEK293T cells with ILT2 mutant
T3 construct: Transfected in HEK-293T cells

ILT2 mutant 4-1 = target: T4, ILT2 mutant 4-1 (human, UniProt Q8NHL6 24-650); test: flow cytometry, HEK293T cells with ILT2 mutant
T4 construct: Transfected in HEK-293T cells

ILT2 mutant 4-5 = target: T5, ILT2 mutant 4-5 (human, UniProt Q8NHL6 24-650); test: flow cytometry, HEK293T cells with ILT2 mutant
T5 construct: Transfected in HEK-293T cells

ILT2 mutant 4-1b = target: T6, ILT2 mutant 4-1b (human, UniProt Q8NHL6 24-650); test: flow cytometry, HEK293T cells with ILT2 mutant
T6 construct: Transfected in HEK-293T cells

ILT2 mutant 6 = target: T7, ILT2 mutant 6 (human, UniProt Q8NHL6 24-650); test: flow cytometry, HEK293T cells with ILT2 mutant
T7 construct: Transfected in HEK-293T cells

ILT2 mutant 8 = target: T8, ILT2 mutant 8 (human, UniProt Q8NHL6 24-650); test: flow cytometry, HEK293T cells with ILT2 mutant
T8 construct: Transfected in HEK-293T cells

ILT2 mutant 4-4 = target: T9, ILT2 mutant 4-4 (human, UniProt Q8NHL6 24-650); test: flow cytometry, HEK293T cells with ILT2 mutant
T9 construct: Transfected in HEK-293T cells

ILT2 mutant 7 = target: T10, ILT2 mutant 7 (human, UniProt Q8NHL6 24-650); test: flow cytometry, HEK293T cells with ILT2 mutant
T10 construct: Transfected in HEK-293T cells

ILT2 mutant 3 = target: T11, ILT2 mutant 3 (human, UniProt Q8NHL6 24-650); test: flow cytometry, HEK293T cells with ILT2 mutant
T11 construct: Transfected in HEK-293T cells

ILT2 mutant 3b = target: T12, ILT2 mutant 3b (human, UniProt Q8NHL6 24-650); test: flow cytometry, HEK293T cells with ILT2 mutant
T12 construct: Transfected in HEK-293T cells

ILT2 mutant 5 = target: T13, ILT2 mutant 5 (human, UniProt Q8NHL6 24-650); test: flow cytometry, HEK293T cells with ILT2 mutant
T13 construct: Transfected in HEK-293T cells

ILT2 mutant 2 = target: T14, ILT2 mutant 2 (human, UniProt Q8NHL6 24-650); test: flow cytometry, HEK293T cells with ILT2 mutant
T14 construct: Transfected in HEK-293T cells; also called M2

[1] = target: T15, ILT-2_6×His recombinant protein (human, UniProt Q8NHL6 24-458); test: SPR, mAb captured on Protein-A, soluble ILT2 analyte
T15 construct: also called recombinant 6×HIS tagged ILT2; recombinant human ILT2 proteins
Procedure: Measurements were performed on a Biacore T200 apparatus (Biacore GE Healthcare) at 25° C. In all Biacore experiments HBS-EP+ (Biacore GE Healthcare) and NaOH 10 mM served as running buffer and regeneration buffer respectively. Sensorgrams were analyzed with Biacore T100 Evaluation software. Protein-A was purchased from (GE Healthcare). Human ILT2 recombinant proteins were cloned, produced and purified at Innate Pharma. Protein-A proteins were immobilized covalently to carboxyl groups in the dextran layer on a Sensor Chip CM5. The chip surface was activated with EDC/NHS (N-ethyl-N′-(3-dimethylaminopropyl) carbodiimidehydrochloride and N-hydroxysuccinimide (Biacore GE Healthcare)). Protein-A was diluted to 10 μg/ml in coupling buffer (10 mM acetate, pH 5.6) and injected until the appropriate immobilization level was reached (i.e. 2000 RU). Deactivation of the remaining activated groups was performed using 100 mM ethanolamine pH 8 (Biacore GE Healthcare). […] For blank subtraction, cycles were performed again replacing ILT2 proteins with running buffer. The monovalent affinity analysis was conducted following a regular Capture-Kinetic protocol as recommended by the manufacturer (Biacore GE Healthcare kinetic wizard). Seven serial dilutions of human ILT2 proteins, ranging from 6.25 to 400 nM were sequentially injected over the captured antibodies and allowed to dissociate for 10 min before regeneration. The entire sensorgram sets were fitted using the 1:1 kinetic binding model.

[2] = target: T16, Human ILT-2 (complete form) expressed at the cell surface (human, UniProt Q8NHL6 24-650); test: flow cytometry titration on cells transfected with wild-type ILT2 (WT)
T16 construct: also called LILRB1; CHO-ILT2
T16 sequence (Q8NHL6 24-650): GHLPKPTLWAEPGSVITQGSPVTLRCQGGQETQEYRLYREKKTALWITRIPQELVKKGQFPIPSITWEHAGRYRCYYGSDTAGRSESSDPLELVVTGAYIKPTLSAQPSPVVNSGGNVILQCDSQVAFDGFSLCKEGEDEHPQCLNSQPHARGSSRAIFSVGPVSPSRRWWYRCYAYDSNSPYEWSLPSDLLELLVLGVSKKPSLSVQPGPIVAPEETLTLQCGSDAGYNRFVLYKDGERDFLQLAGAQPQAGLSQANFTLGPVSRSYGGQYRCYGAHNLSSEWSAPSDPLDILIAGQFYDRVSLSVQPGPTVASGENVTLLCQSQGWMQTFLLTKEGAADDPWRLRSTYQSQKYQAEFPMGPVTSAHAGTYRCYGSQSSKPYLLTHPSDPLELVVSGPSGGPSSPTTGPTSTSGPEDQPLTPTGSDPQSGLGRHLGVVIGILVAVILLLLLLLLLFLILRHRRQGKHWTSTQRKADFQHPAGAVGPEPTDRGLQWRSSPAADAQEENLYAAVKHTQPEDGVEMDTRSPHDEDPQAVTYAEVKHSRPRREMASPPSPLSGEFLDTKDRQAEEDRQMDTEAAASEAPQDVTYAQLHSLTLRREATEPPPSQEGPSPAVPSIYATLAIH

T15 sequence (Q8NHL6 other isoform, or with tags, fused parts or gaps limits assumed): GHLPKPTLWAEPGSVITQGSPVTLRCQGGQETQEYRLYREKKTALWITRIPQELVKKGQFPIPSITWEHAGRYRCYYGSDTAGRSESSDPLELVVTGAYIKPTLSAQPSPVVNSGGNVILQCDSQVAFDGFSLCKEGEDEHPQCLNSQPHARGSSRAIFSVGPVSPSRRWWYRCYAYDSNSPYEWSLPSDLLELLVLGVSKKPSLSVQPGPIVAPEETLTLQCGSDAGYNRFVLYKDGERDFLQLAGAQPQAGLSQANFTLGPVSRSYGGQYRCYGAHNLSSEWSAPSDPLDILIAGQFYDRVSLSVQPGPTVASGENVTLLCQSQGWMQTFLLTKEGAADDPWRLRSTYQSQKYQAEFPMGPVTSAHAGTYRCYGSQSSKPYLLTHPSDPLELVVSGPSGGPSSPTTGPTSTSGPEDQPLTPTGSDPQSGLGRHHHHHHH
T11 sequence (Q8NHL6 other isoform, or with tags, fused parts or gaps mutant): as the sequence (Q8NHL6 24-650) above, with Y99A, I100S, V126S, A127S, D129A, N180R, S181A, E184G counted along it
T1 sequence (Q8NHL6 other isoform, or with tags, fused parts or gaps mutant): as the sequence (Q8NHL6 24-650) above, with S132A, L145S, N146A, Q148H, P149S counted along it
T4 sequence (Q8NHL6 other isoform, or with tags, fused parts or gaps mutant): as the sequence (Q8NHL6 24-650) above, with F299I, Y300R, D301A, W328G, Q378A, K381N counted along it
T2 sequence (Q8NHL6 other isoform, or with tags, fused parts or gaps mutant): as the sequence (Q8NHL6 24-650) above, with W328G, Q330H, R347A, T349A, Y350S, Y355A counted along it
T14 sequence (Q8NHL6 other isoform, or with tags, fused parts or gaps mutant): as the sequence (Q8NHL6 24-650) above, with E34A, R36A, Y76I, A82S, R84L counted along it
T8 sequence (Q8NHL6 other isoform, or with tags, fused parts or gaps mutant): as the sequence (Q8NHL6 24-650) above, with V111S, N113A, L195S, L197P counted along it
T9 sequence (Q8NHL6 other isoform, or with tags, fused parts or gaps mutant): as the sequence (Q8NHL6 24-650) above, with Q308A, P309G, N318A, T320A, E358S, G362S counted along it
T10 sequence (Q8NHL6 other isoform, or with tags, fused parts or gaps mutant): as the sequence (Q8NHL6 24-650) above, with P166A, R169A, W171S, L191A, E193G, L195S, L197P counted along it
T5 sequence (Q8NHL6 other isoform, or with tags, fused parts or gaps mutant): as the sequence (Q8NHL6 24-650) above, with D341A, D342S, W344L, R345A, R347A counted along it
T3 sequence (Q8NHL6 other isoform, or with tags, fused parts or gaps mutant): as the sequence (Q8NHL6 24-650) above, with Q324A, Q326S, S352A, Q353H, K354A counted along it
T6 sequence (Q8NHL6 other isoform, or with tags, fused parts or gaps mutant): as the sequence (Q8NHL6 24-650) above, with Y300R, D301A, R302A, S304F, H387A, D390A counted along it
T13 sequence (Q8NHL6 other isoform, or with tags, fused parts or gaps mutant): as the sequence (Q8NHL6 24-650) above, with A127S, D129A, Q148H, R152A, N180R counted along it
T12 sequence (Q8NHL6 other isoform, or with tags, fused parts or gaps mutant): as the sequence (Q8NHL6 24-650) above, with Q18A, W67A, Y99A, I100S, V126S, S181A, E184G counted along it
T7 sequence (Q8NHL6 other isoform, or with tags, fused parts or gaps mutant): as the sequence (Q8NHL6 24-650) above, with Q107L, P108A, I119A, R156A counted along it

- binding result (ILT2 mutant 4): binds
- binding result (ILT2 mutant 4-2): binds
- binding result (ILT2 mutant 4-3): binds
- binding result (ILT2 mutant 4-1): binds
- binding result (ILT2 mutant 4-5): binds
- binding result (ILT2 mutant 4-1b): binds
- binding result (ILT2 mutant 6): binds
- binding result (ILT2 mutant 8): binds
- binding result (ILT2 mutant 4-4): binds
- binding result (ILT2 mutant 7): binds
- binding result (ILT2 mutant 3): binds
- binding result (ILT2 mutant 3b): binds
- binding result (ILT2 mutant 5): binds
B1: 12D12 (antibody, human IgG1, V domains shown)
VH: QVQLQQPGAELVKPGASVRMSCKASGYTFTSYWVHWVKQRPGQGLEWIGVIDPSDSYTSYNQNFKGKATLTVDTSSKTAYIHLSSLTSEDSAVYFCARGERYDGDYFAMDYWGQGTSVTVSS
VL: DIVMTQSPASLSVSVGETVTITCRASENIYSNLAWYQQKQGKSPQLLVYAATNLADGVPSRFSGSRSGTQYSLKINSLQSEDFGTYYCQHFWNTPRTFGGGTKLEIK
notes: also called 12012

- binding result (ILT2 mutant 2): no binding
B2: 2H2A (antibody, V domains shown)
VH: EVKLEESGPELVKPGASVKLSCKASGYTFTNYYMQWVKQRPGQGLEWIGWIFPGSGESSYNEKFKGKATLSADTSSTTAYMQLSSLTSEDSAVYFCARTWNYDARWGYWGQGTTLTVSS
VL: DILMTQSPASLAVSLGQRATISCIPSESIDSYGISFMHWYQQKPGQPPKLLIYRASNLESGIPARFSGSGSRTDFTLTINPVEADDVATYYCQQSNEDPFTFGSGTKLELK

- kon [1]: 750000 M⁻¹ s⁻¹
B3: 18E1 (antibody, human IgG1, V domains shown)
VH: QVQLQQSGAELVKPGASVRLSCKASGYTFTAHTIHWVKQRSGQGLEWIGWLYPGSGSIKYNEKFKDKATLTADKSSSTVYMELSRLTSEDSAVYFCARHTNWDFDYWGQGTTLTVSS
VL: NIVLTQSPASLAVSLGQRATISCKASQSVDYGGASYMNWYQQKPGQPPKLLIYAASNLESGIPARFSGSGSGTDLTLNIHPVEEEDAAMYYCQQSNEEPWTFGGGTKLEIK

- kon [1]: 660000 M⁻¹ s⁻¹
B4: 27H5 (antibody, human IgG1, V domains shown)
VH: QVQLKESGPGLVAPSQSLSITCTVSGFSLTSYGVSWVRQPPGKGLEWLGVIWGDGNTNYHSALISRLSISKDNSKSQVFLKLNSLQTDDTATYYCARTNWDGWFAYWGQGTLVTVSA
VL: DIVMTQSHKFMSTSVGDRVSITCKASQDVGTAVAWYQQKPGQSPKLLIYWASTRHTGVPDRFTGSGSGTDFTLTISNVQSEDLADYFCQQYRSYPLGTFGGGTKLEIK

- kon [1]: 280000 M⁻¹ s⁻¹
- EC50 (read off the curve) [2]: ~1 µg/mL
B5: 3H5 (antibody, human IgG1, V domains shown)
VH: QVQLKESGPGLVAPSQSLSITCTVSGFSLTSYGVSWVRQPPGKGLEWLGVIWGDGSTNYHSALISRLSISKDNSKSQVFLKLNSLQTDDTATYYCAKPRWDDYAMDYWGQGTSVTVSS
VL: DIQMTQTTSSLSASLGDRVTISCRASQDISNYLNWYQQKPDGTVKLLIYYTSRLHSGVPSRFSGSGSGTDYSLTISNLEQEDIATYFCQQGNTLWTFGGGTKLEIK
